Consider one substance from article PMC9804225.

The Kd is the equilibrium constant for the complex coming apart.

The target of experiment [1] is recombinantly expressed GFP Nb. The experiment in a line: BLI; Nbs immobilised by their C-terminal His-tag on Ni-NTA biosensor tips; untagged GFP as analyte at 1 nM to 100 nM. A general note: Biolayer interferometry detects binding as a change in optical thickness at a sensor tip.
The target in experiment [2] is synthetic GFP Nb_(1–123)‐linker‐PA (5), folded. Described as above.

Take “untagged GFP (from UniProt P42212 1-238) (natural protein)”: the Kd was 1.12 nM in experiment [1] and 1.11 nM in experiment [2].
